Measurements from the supplement of paper PMC12042874.
± gives the uncertainty stated by the source.

Test: amyloid nucleation score (Sup35N fusion, yeast selection) (log enrichment); library NNK1; higher = more nucleation; inactive = no reads after selection
Procedure, shortened: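 Libraries of peptides of 20 random codons fused to Sup35N were expressed in psi-negative yeast and induced 24 hours with 100 μM copper sulfate. Selection was 7 days at 30°C on medium lacking adenine and uracil, and plasmid inserts were Illumina-sequenced before and after selection. Nucleation score is the DiMSum log enrichment of output over input reads, centred on the mode score of non-aggregating sequences, and sequences with under 100 input reads were left out.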
With KSPRVSVGTASVSWRKKFTW the amyloid nucleation score was 0.2 ± 0.74.
For KSQGEVFRVAREGNFIIEES, the amyloid nucleation score was -1.07 ± 1.2.
KSQTRDIFRGDVMC showed an amyloid nucleation score of -0.991 ± 0.71.
For KSQVVMRDVEPATNIV, the amyloid nucleation score was -0.153 ± 0.69.
For KSSYLFMTSWPYWVRGMSYA, the amyloid nucleation score was 0.01 ± 0.46.
Work on KSVAIAPYDGCVMFSKQTWG yielded an amyloid nucleation score of -0.025 ± 0.63.
For KSYLLGDGTFNSCTW, the amyloid nucleation score was 0.107 ± 0.69.
KTAPGLKCIQIEVWQY gave an amyloid nucleation score of 0.035 ± 0.35.
For KTFLHSTSYNNKKRWMSLRQ, the amyloid nucleation score was 0.485 ± 0.66.
KTLDLHISFPQDKLFR gave an amyloid nucleation score of -0.382 ± 0.45.
In the case of KTRHMREDGQCVYKHEMERM, the amyloid nucleation score is reported as 0.577 ± 0.19.
With KTWNVCALARGWECEAINVW the amyloid nucleation score was -0.264 ± 0.3.
Substance KVAVN has an amyloid nucleation score of 0.453 ± 0.42.
Work on KVCVLLSSCIYDNLHVR yielded an amyloid nucleation score of 0.402 ± 1.4.
KVFGTRPVRYETCRFLRLRS gave an amyloid nucleation score of -0.013 ± 0.34.
For KVFINVYIKRQRNKCRRSNR, the amyloid nucleation score was 5.899 ± 0.054.
For KVKNRAFWPHMSLTYAMVPP, the amyloid nucleation score was 0.333 ± 0.39.
For KVLFLTCYTTPSLNNLVFRC, the amyloid nucleation score was -0.069 ± 0.28.
KVLTRPG gave an amyloid nucleation score of -0.213 ± 0.64.
KVTMRWV showed an amyloid nucleation score of 2.21 ± 0.27.
Substance KVVTGLIYFWCIWCFGTLRV has an amyloid nucleation score of 0.431 ± 0.9.
KWDLRPYFFLMVLEQGCSMW showed an amyloid nucleation score of -0.506 ± 1.
In the case of KWEYCCLFMLAHVEDHLKGF, the amyloid nucleation score is reported as 0.59 ± 0.34.
KWLPMKMKLWFDNSYGGQWF showed an amyloid nucleation score of -0.265 ± 1.2.
KWSSRCQWDWTLLGTCLAL gave an amyloid nucleation score of 0.29 ± 0.3.
Substance KWSVSV has an amyloid nucleation score of -0.32 ± 1.3.
KWVKEALIA showed an amyloid nucleation score of -0.463 ± 0.73.
In the case of KWYNTPNSDWSV, the amyloid nucleation score is reported as -0.983 ± 1.7.
KYCVN showed an amyloid nucleation score of -0.403 ± 0.38.
With KYENGCTDTWGMTVASPLIK the amyloid nucleation score was -0.515 ± 1.
With KYVCGLTDTVIRGMLKVIRA the amyloid nucleation score was 0.559 ± 0.27.
Work on LACTYLCWALC yielded an amyloid nucleation score of -1.32 ± 0.86.
In the case of LAEYHYGSMFSLNSTYYNLS, the amyloid nucleation score is reported as 5.91 ± 0.069.
For LAFMYVGKYARRGLTIYNLI, the amyloid nucleation score was -0.335 ± 0.54.
Substance LAITDKCSRALSLLSCPDF has an amyloid nucleation score of 0.265 ± 0.63.
For LALFIDWQ, the amyloid nucleation score was 1.53 ± 0.53.
LAQSGIDIYLRKGMDARKMR gave an amyloid nucleation score of -0.516 ± 0.32.
For LARCRWLVKRVCDGNWCCML, the amyloid nucleation score was 0.569 ± 0.48.
In the case of LAVFSNVLLYVEDMSALIRG, the amyloid nucleation score is reported as 0.129 ± 0.2.
LAYGWKFDNSCLL gave an amyloid nucleation score of 1.29 ± 0.68.
With LAYVHTVKVDGPWKHMNVWY the amyloid nucleation score was 1.22 ± 0.54.
With LCAARNFSL the amyloid nucleation score was -0.277 ± 0.5.
With LCCFKSFVSENMN the amyloid nucleation score was 6.447 ± 0.05.
LCFDVSFRYYGMGYIL gave an amyloid nucleation score of 0.165 ± 0.23.
LCFGGRSWSCFVKVKHLFAC showed an amyloid nucleation score of 1.68 ± 0.51.
LCFSGD gave an amyloid nucleation score of -0.352 ± 0.99.
LCFVPGS gave an amyloid nucleation score of 3.73 ± 0.073.
LCGDAPREDYSHGYVLNQVG gave an amyloid nucleation score of 0.352 ± 0.78.
With LCGHF the amyloid nucleation score was 4.35 ± 0.051.
LCITQKYRFSLHNLHQPTDW gave an amyloid nucleation score of 1.93 ± 0.45.
With LCLFGSWLKKLKYNRFLFVG the amyloid nucleation score was -1.18 ± 1.7.
For LCSHAIFCSSCGRFVLMEAC, the amyloid nucleation score was “inactive”.
Substance LCSIN has an amyloid nucleation score of -0.876 ± 0.99.
With LDAKVFRVALAYYLPPGP the amyloid nucleation score was 0.789 ± 0.53.
LDETIQSNRDTHLCQFA gave an amyloid nucleation score of -0.29 ± 0.56.
Work on LDFIKWAYNWCRLIVGIGGC yielded an amyloid nucleation score of -0.476 ± 1.9.
Substance LDGFSVNLCWFRHTERCVAC has an amyloid nucleation score of -0.224 ± 0.78.
LDQKTFWLSVPVSWQIPADM showed an amyloid nucleation score of 0.477 ± 0.61.
Work on LDRSTSSLIMSSCLMYRESS yielded an amyloid nucleation score of 1.33 ± 0.29.
For LDSARMGLFITGMV, the amyloid nucleation score was -1.06 ± 0.87.
In the case of LDTGVMMEIKICIHYRDCYD, the amyloid nucleation score is reported as 1.84 ± 0.21.
LDVCCEYPSKSSVMEWQVWL showed an amyloid nucleation score of 1.02 ± 0.54.
LEASSIISSRTPG showed an amyloid nucleation score of -0.93 ± 2.4.
For LEFRPRFSSISYHMIMFVGH, the amyloid nucleation score was “inactive”.
Work on LEGITELWRVMSYLMMTMVR yielded an amyloid nucleation score of -0.457 ± 1.1.
Work on LEHYRVVLLG yielded an amyloid nucleation score of -0.535 ± 0.43.
LEILL gave an amyloid nucleation score of 0.145 ± 0.45.
Substance LEKINQVSGLDFRRIEFEPS has an amyloid nucleation score of -0.172 ± 1.2.
For LELLMVKILSSLYDIMIFCC, the amyloid nucleation score was “inactive”.
For LEMDRICMMLSDSRFKLTLV, the amyloid nucleation score was -0.025 ± 0.21.
With LFAIKYCDVSD the amyloid nucleation score was 0.286 ± 0.43.
For LFETI, the amyloid nucleation score was 0.746 ± 0.71.
Substance LFFHL has an amyloid nucleation score of 0.83 ± 0.79.
Work on LFFLLLNHRAVVVLLWCHFT yielded an amyloid nucleation score of -1.19 ± 0.91.
With LFGSEVTWYLTSGCDKPFLH the amyloid nucleation score was 0.087 ± 0.48.
Work on LFIVPRRGARRYRVVITKSV yielded an amyloid nucleation score of 0.003 ± 0.46.
LFIVTFSYFLSPRLVQWYAL gave an amyloid nucleation score of 0.516 ± 0.67.
For LFLECNDTLHRATTGVNLFK, the amyloid nucleation score was 0.206 ± 1.6.
For LFLHPMYMMKAASASGITVV, the amyloid nucleation score was -0.1 ± 0.57.
With LFLIV the amyloid nucleation score was -0.08 ± 0.24.
With LFNYPS the amyloid nucleation score was -0.948 ± 1.1.
In the case of LFPIDSVNGTDWMTRMRDKI, the amyloid nucleation score is reported as “inactive”.
With LFREQW the amyloid nucleation score was 0.228 ± 0.85.
For LFRFCTIILLAYGLSLCNDI, the amyloid nucleation score was “inactive”.
In the case of LFRWEGVATACSCGDDASFA, the amyloid nucleation score is reported as -0.668 ± 1.1.
For LFSCWQSGRVNKYYVDGSMG, the amyloid nucleation score was -0.206 ± 0.97.
LFSYMYLEVDMSESMIRYL gave an amyloid nucleation score of 1.02 ± 0.31.
With LFTCVQFIMGVDDRWKRARS the amyloid nucleation score was 2.19 ± 0.26.
Work on LFTRIFSLSMYVPNCFRYAY yielded an amyloid nucleation score of 1.02 ± 0.39.
With LFYCRALRYFASHLDASNMH the amyloid nucleation score was -1.09 ± 0.84.
For LGCSFR, the amyloid nucleation score was -0.065 ± 1.4.
In the case of LGGFSMRVNEVVLPGVRFGD, the amyloid nucleation score is reported as -0.037 ± 1.7.
Work on LGHGHIDGQYKGYRVKWTYD yielded an amyloid nucleation score of -0.644 ± 0.35.
With LGHIILSAFFYRSFNLEVSL the amyloid nucleation score was “inactive”.
LGLGDGLLVRFNKFCGLMGR showed an amyloid nucleation score of -0.153 ± 1.2.
LGLRFTCRLFGCIYTRASIM gave an amyloid nucleation score of -0.735 ± 1.7.
With LGMIADYQKQKMMSSGTSLR the amyloid nucleation score was 0.289 ± 0.69.
With LGPNW the amyloid nucleation score was -0.356 ± 0.53.
LGPVLFKLLRETCAQSYKVM showed an amyloid nucleation score of -0.005 ± 0.67.
With LGPYQTCR the amyloid nucleation score was 1.58 ± 0.72.
LGQEL gave an amyloid nucleation score of 0.416 ± 0.39.
Work on LGRKFT yielded an amyloid nucleation score of 2.05 ± 0.41.
Work on LGSDDLLKVSFFFVSLGS yielded an amyloid nucleation score of -0.087 ± 1.2.
Work on LGSGQGVNLSALPRFEYACR yielded an amyloid nucleation score of 0.527 ± 0.44.
Work on LGSMSPVGLTKYLGDGEEVV yielded an amyloid nucleation score of -0.036 ± 0.55.
Work on LGSWRFMLAVI yielded an amyloid nucleation score of 0.375 ± 0.48.
Work on LGTLMSPPTRTDFMHPRYRV yielded an amyloid nucleation score of 1.51 ± 0.48.
LGYKSGVFLWGFRFHP gave an amyloid nucleation score of -1.35 ± 2.1.
Substance LHGLNF has an amyloid nucleation score of 0.843 ± 0.74.
LHGPVFYKFACVVASPWGSI gave an amyloid nucleation score of -0.235 ± 0.41.
LHIAMTVYC gave an amyloid nucleation score of 2.42 ± 0.13.
LHLPYGCTASAICQFECSGW gave an amyloid nucleation score of 3 ± 0.15.
For LHNERRSVISTPYRQSEAGL, the amyloid nucleation score was 0.707 ± 0.43.
LHSQKGILSLSSPI showed an amyloid nucleation score of -0.223 ± 0.32.
With LICPSLHPRAVGECSSVCWR the amyloid nucleation score was 0.157 ± 0.19.
Work on LIENTGLHRENISRAPGGR yielded an amyloid nucleation score of -0.469 ± 0.83.
For LIHRA, the amyloid nucleation score was -0.041 ± 0.32.
LIIKEFITLLSPCWELLRIR showed an amyloid nucleation score of 0.901 ± 0.9.
Substance LIINGD has an amyloid nucleation score of 0.609 ± 1.2.
For LIKGWSYPGVPCVGLLMDGK, the amyloid nucleation score was 0.27 ± 0.33.
With LIKKKSNSIYMI the amyloid nucleation score was -0.062 ± 0.3.
Work on LINMYSMDMTTDHAPAYKLD yielded an amyloid nucleation score of -0.302 ± 0.47.
LIQWENGTH gave an amyloid nucleation score of -0.672 ± 0.34.
In the case of LIRNKIRR, the amyloid nucleation score is reported as -1.12 ± 0.93.
Substance LIWFVYMD has an amyloid nucleation score of 0.347 ± 0.55.
Work on LIWSHVLDGYSCEKPSNRMC yielded an amyloid nucleation score of -0.662 ± 0.98.
In the case of LKARQHFRNHHGMLVQKRWD, the amyloid nucleation score is reported as “inactive”.
In the case of LKCFRLS, the amyloid nucleation score is reported as 0.327 ± 0.55.
Work on LKEDISPSELHTQLC yielded an amyloid nucleation score of 0.81 ± 0.54.
For LKHDRSNR, the amyloid nucleation score was 0.345 ± 1.2.
